The values that follow come from paper PMC2864300, “Regulation of NOXO1 Activity through Reversible Interactions with p22^phox and NOXA1” (PLoS ONE, 2010).

B1: human NOXO1 SH3AB–E (tandem SH3 domains plus the C-terminal portion of NOXO1) (domain or fragment)
chain: LEAQSLRCLQPFCTQDTRDRPFQAQAQESLDVLLRHPSGWWLVENEDRQTAWFPAPYLEEAAPGQGREGGPSLGSSGPQFCASRAYESSRADELSVPAGARVRVLETSDRGWWLCRYGDRAGLLPAVLLRPEGLGALLSGTGFRGGDDPAGEARGFPEPSQATAPPPTVPTRPSPGAIQSRCCTVTRRALERRPRRQGRPRGCVDSVPHPTTEQ
B2: peptideA (amino acids 319–347 of human NOXO1) (peptide)
peptide: TAPPPTVPTRPSPGAIQSRCCTVTRRALE
notes: also called long version of peptideA; source: synthetic peptide
B3: mouse NOXA1 SH3 domain (domain or fragment, UniProt Q8CJ00 369-428, looked up)
chain: PVLYQVVAQYNYRAQRPEDLDFHQGDTVDVLCEVDEAWLEGHRDGCVGIFPKCFVVPAGA
notes: mouse NOXA1, carboxy-terminal SH3 domain; source: E. coli BL21 STAR, purified (glutathione Sepharose, PreScission cleavage, Superdex 75)
B4: mouse p22^phox cytoplasmic domain (p22^phoxC) (domain or fragment, UniProt Q61462 127-192, looked up)
chain: RGEQWTPIEPKPKERPQVGGTIKQPPTNPPPRPPAEVRKKPSEGEEEAASAGGPQVNPMPVTDEVV
notes: mouse p22phox, cytoplasmic domain; also called murine p22^phox; source: E. coli BL21 STAR, purified (glutathione Sepharose, PreScission cleavage, Superdex 75)
B5: shorter version of peptideA, which only contains the proline rich region (peptide)
peptide: TAPPPTVPTRPS
notes: also called PeptideA-short; short proline-rich motif-containing version of peptideA; source: synthetic peptide
B6: human NOXA1 SH3 domain (domain or fragment, UniProt Q86UR1 399-458, looked up)
chain: PVLYQVVAQHSYSAQGPEDLGFRQGDTVDVLCEVDQAWLEGHCDGRIGIFPKCFVVPAGP
notes: human NOXA1, carboxy-terminal SH3 domain; source: E. coli BL21 STAR, purified (glutathione Sepharose, PreScission cleavage, Superdex 75)

Common to all, as to experiment: ITC; MicroCal VP-ITC, 18°C; 150 mM NaCl, 1 mM DTT, 50 mM HEPES pH 7.4; typically 20–40 µM protein in the cell, 200–300 µM ligand injected; single-site binding model; averaged over three to five experiments
What all share (conditions): both partners purified

The assay “human NOXA1 SH3 domain” deals with B6.
Assay [1] addresses T1, human p22^phox cytoplasmic domain (p22^phoxC) (human).
T1 construct: human p22phox, cytoplasmic domain; source: E. coli BL21 STAR, purified (glutathione Sepharose, PreScission cleavage, Superdex 75)
T1 sequence (P13498 whole entry, looked up): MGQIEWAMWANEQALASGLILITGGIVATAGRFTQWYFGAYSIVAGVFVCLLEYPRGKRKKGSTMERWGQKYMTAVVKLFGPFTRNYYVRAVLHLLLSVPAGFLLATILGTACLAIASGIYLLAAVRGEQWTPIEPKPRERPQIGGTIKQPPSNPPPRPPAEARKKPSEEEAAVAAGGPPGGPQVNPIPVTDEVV

In the assay “mouse NOXA1 SH3 domain” the target is B3.
The target in assay [2] is T2, mouse NOXO1 SH3AB–E (tandem SH3 domains plus the C-terminal portion of NOXO1) (mouse, UniProt Q8VCM2 160-349).
T2 construct: mouse NOXO1, tandem SH3 domains plus the C-terminal portion; source: E. coli BL21 STAR, purified (glutathione Sepharose, PreScission cleavage, Superdex 75)
T2 sequence (looked up): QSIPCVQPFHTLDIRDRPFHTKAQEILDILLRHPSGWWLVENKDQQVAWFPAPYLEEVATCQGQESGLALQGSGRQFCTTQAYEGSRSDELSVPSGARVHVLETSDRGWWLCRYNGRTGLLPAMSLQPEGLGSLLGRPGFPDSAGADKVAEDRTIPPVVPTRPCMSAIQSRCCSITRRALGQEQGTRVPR

The target in assay [3] is T2, mouse NOXO1 SH3AB–E (tandem SH3 domains …). The source holds these as a separate data set.
Assay [4] has as its target B1.

B1: the Kd amounted to 7.2 µM with human NOXA1 SH3 domain and 17.5 µM in assay [1].
Take B2: the Kd worked out at 5.8 µM with human NOXA1 SH3 domain and 5.9 µM with mouse NOXA1 SH3 domain. Moreover, the dH is -12.6 ± 0.6 kcal/mol with human NOXA1 SH3 domain and -7.6 ± 0.3 kcal/mol in the assay with mouse NOXA1 SH3 domain.
Regarding B3, in assay [2], the Kd turned out to be 2.2 µM and the dH was -10.1 ± 0.8 kcal/mol.
With B4, in assay [3], the Kd came out at 0.78 µM and the dH is -7.1 ± 0.05 kcal/mol.
As for B5, the Kd with human NOXA1 SH3 domain is more than 70 µM.
Consider B6, for which the dH in assay [4] is -8.6 ± 0.7 kcal/mol.

By Kd is commonly meant the equilibrium constant for the complex coming apart.
